Experiment [1] addresses T1, short isoform of VEGF (8-109) (UniProt P15692 214-315).
T1 construct: range 8-109; Immobilized by amine coupling for SPR; in solution for the fluorescence assay; also called vascular endothelial growth factor
T1 sequence (looked up): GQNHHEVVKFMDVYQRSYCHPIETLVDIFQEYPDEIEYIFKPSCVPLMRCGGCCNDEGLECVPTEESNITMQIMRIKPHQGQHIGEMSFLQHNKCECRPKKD
The experiment can be described thus: calculated from k-1 and k1, 0 M NaCl data.

Experiment [2] has as its target T1, short isoform of VEGF (8-109). The experiment can be described thus: fluorescence-based association assay at varied salt concentration. Here is the method: (§1) In the experiments described here, the fluorescence emission intensity (λexcitation=295 nm; λₑₘᵢₛₛᵢₒₙ=340 nm, 16 nm bandpass) was measured using an 8000-series SLM-Aminco spectrophotometer (THERMOSPECTRONIC®) as VEGF was added to a stirred cuvette containing approximately 10 nM Fab in 25 mM Tris, pH 7.2, held at 37° C.

Experiment [3] shares this target. In words: SPR (BIAcore), VEGF immobilized, 25 mM Tris, 150 mM NaCl, 25 C. For orientation: Surface plasmon resonance follows binding to a sensor surface in real time, without labels.
Experiment [4] shares this target. The experiment can be described thus: SPR (BIAcore), VEGF immobilized, 25 mM Tris pH 7.2, 0 M NaCl, 37 C. Here is the method:
(§2) Dissociation rates were measured by surface plasmon resonance on a BIACORE-2000® instrument (BIAcore, Inc.) as described previously (Muller et al. Structure 6(9): 1153-67 (1998)). VEGF was immobilized by amine coupling to a B1 chip at approximately 10 resonance-response units. Fab binding was measured at 1 μM, 500 nM, 250 nM, 125 nM, 62.5 nM, and 31.3 nM. Dissociation was calculated assuming a one-to-one binding model. All experiments were performed at 37° C. in phosphate buffered saline solution, pH 7.2, containing 0.05% Tween-20, 0.01% NaN3 and at a flow rate of 20 μL min⁻¹.
(§3) Residues are numbered according the Kabat system (Kabat et al. Sequences of Proteins of Immunological Interest, 5th Edition., National Institute of Health, Bethesda, Md. (1991)). k₁ determined by the fluorescence-based assay (±standard deviation of three experiments). k₋₁ determined by surface plasmon resonance (±standard deviation of 12 experiments). k₁ and k₋₁ (0 M NaCl) experiments were performed in 25 mM Tris, pH 7.2, at 37° C. k₋₁ (0.15 M NaCl) experiments performed in 25 mM Tris, 150 mM NaCl, at 25° C.

For experiment [5] the target is unchanged. The experiment can be described thus: fluorescence-based association assay in solution, 25 mM Tris pH 7.2, 37 C. Here is the method:
as §1

Experiment [6] has the same target. Described as above. The procedure:
as §1, §3
This is another data set of the same source.

Experiment [7] has the same target. The experiment is described as above. Here is the method:
as §1
(§4) Residues are numbered according the Kabat system (Kabat et al. Sequences of Proteins of Immunological Interest, 5th Edition., National Institute of Health, Bethesda, Md. (1991)). k₁ determined by the fluorescence-based assay (±standard deviation of three experiments, wild-type only). k₋₁ determined by surface plasmon resonance (±standard deviation of 12 experiments). k₁ and k₋₁ (0 M NaCl) experiments were performed in 25 mM Tris, pH 7.2, at 37° C. k₋₁ (0.15 M NaCl) experiments performed in 25 mM Tris, 150 mM NaCl, at 25° C.
This is another data set of the same source.

Experiment [8] has the same target. In words: calculated from k-1 and k1, 0 M NaCl data. The source holds these as a separate data set.
The target is the same in experiment [9]. In words: SPR (BIAcore), VEGF immobilized, 25 mM Tris, 150 mM NaCl, 25 C. The source holds these as a separate data set.
Experiment [10] has the same target. In words: SPR (BIAcore), VEGF immobilized, 25 mM Tris pH 7.2, 0 M NaCl, 37 C. The procedure:
as §2, §4
The source holds these as a separate data set.

Positions count from the first letter of the chain named. Numbers in names are those of the source. Where two headings read alike, the source gives them in different places.

B1: 34-TKKT (VH-(T28D, S100aR)+VL-(S26T, Q27K, D28K, S30T)) (Fab, V domains shown)
VH: EVQLVESGGGLVQPGGSLRLSCAASGYDFTNYGMNWVRQAPGKGLEWVGWINTYTGEPTYAADFKRRFTFSLDTSKSTAYLQMNSLRAEDTAVYYCAKYPHYYGRSHWYFDVWGQGTLVTVSS
VL: DIQLTQSPSSLSASVGDRVTITCSATKKITNYLNWYQQKPGKAPKVLIYFTSSLHSGVPSRFSGSGSGTDFTLTISSLQPEDFATYYCQQYSTVPWTFGQGTKVEIKR
notes: Fab of Y0101 with both altered chains
Turning to B1, the Kd – broadly, the free concentration of one partner at which half of the binding sites on the other are occupied at equilibrium, for simple one-to-one binding – in experiment [1] was 80 pM. The “fold difference in association rate against Y0101 in 150 mM NaCl” value in experiment [2] was below 2 fold. For the same molecule, the koff (commonly a measure of how fast the partners let go of each other) in experiment [3] came out at 2e-05 s⁻¹; in [4], 0.00026 s⁻¹. In addition, the “fold higher association rate than Y0101” value in experiment [5] came to 6 fold. Moreover, the kon (commonly a measure of how fast the partners come together) in [6] is 3.3e+06 M⁻¹ s⁻¹.

B2: Fab Y0101 variant, light chain S26K, D28K, S30K (Fab, V domains shown)
VH: B1 VH with D28T, R105S
VL: B1 VL with T26K, K27Q, T30K
notes: Fab of Y0101 with several light chain substitutions
B2 gave a kon in experiment [6] of 1.3e+06 M⁻¹ s⁻¹.

B3: Fab Y0101 variant, heavy chain T28D, S100aR (Fab, V domains shown)
VH: B1 VH
VL: B1 VL with T26S, K27Q, K28D, T30S
notes: Fab; also called altered heavy chain T28D-S100aR
On to B3, for which the koff in [3] is 0.00011 s⁻¹. The molecule also yielded a kon in [6] of 1.4e+06 M⁻¹ s⁻¹.

B4: Fab Y0101 variant, light chain Y32R (Fab, V domains shown)
VH: B1 VH with D28T, R105S
VL: B1 VL with T26S, K27Q, K28D, T30S, Y32R
notes: Fab of Y0101 with one light chain substitution
With B4, in [7], the kon amounted to 710000 M⁻¹ s⁻¹.

B5: Fab Y0101 variant, heavy chain Y99K (Fab, name in Kabat numbering, V domains shown)
VH: B1 VH with D28T, Y103K, R105S
VL: B1 VL with T26S, K27Q, K28D, T30S
notes: Fab of Y0101 with one heavy chain substitution
Consider B5, for which the Kd in experiment [8] was 400 pM. Besides, the koff in experiment [9] is 0.00014 s⁻¹; in experiment [10] it was 0.00015 s⁻¹. The kon in experiment [7] is 380000 M⁻¹ s⁻¹.

B6: Fab Y0101 variant, light chain S26K, Q27K, D28N, S30T (Fab, V domains shown)
VH: B1 VH with D28T, R105S
VL: B1 VL with T26K, K28N
notes: as for B2
In experiment [6], B6 came in with a kon of 610000 M⁻¹ s⁻¹.

B7: Fab Y0101 variant, light chain S52K, S53K, L54T (Fab, V domains shown)
VH: B1 VH with D28T, R105S
VL: B1 VL with T26S, K27Q, K28D, T30S, S52K, S53K, L54T
notes: as for B2
In turn, B7 registered a kon in experiment [6] of 1.3e+06 M⁻¹ s⁻¹.

B8: Fab Y0101 variant, light chain L54K (Fab, V domains shown)
VH: B1 VH with D28T, R105S
VL: B1 VL with T26S, K27Q, K28D, T30S, L54K
notes: as for B4
In [7], B8 displayed an association rate constant (kon) of 440000 M⁻¹ s⁻¹.

B9: Fab Y0101 variant, heavy chain S100aR (Fab, name in Kabat numbering, V domains shown)
VH: B1 VH with D28T
VL: B1 VL with T26S, K27Q, K28D, T30S
notes: as for B5
For B9, the Kd in experiment [8] was 300 pM. In addition, the koff in experiment [9] came out at 7e-05 s⁻¹; in experiment [10] it was 0.00024 s⁻¹. The kon in experiment [7] amounted to 870000 M⁻¹ s⁻¹.

B10: Fab Y0101 variant, heavy chain T28K (Fab, name in Kabat numbering, V domains shown)
VH: B1 VH with D28K, R105S
VL: B1 VL with T26S, K27Q, K28D, T30S
notes: as for B5
Take B10: in experiment [7], the kon worked out at 360000 M⁻¹ s⁻¹.

B11: Fab Y0101 variant, heavy chain Y99R (Fab, name in Kabat numbering, V domains shown)
VH: B1 VH with D28T, Y103R, R105S
VL: B1 VL with T26S, K27Q, K28D, T30S
notes: as for B5
Take B11: the Kd in [8] is 200 pM. Besides, the koff in [9] was determined as 0.00016 s⁻¹; in experiment [10], 0.00014 s⁻¹. Also, the kon in experiment [7] was determined as 600000 M⁻¹ s⁻¹.

B12: Fab Y0101 variant, heavy chain E56K (Fab, name in Kabat numbering, V domains shown)
VH: B1 VH with D28T, E57K, R105S
VL: B1 VL with T26S, K27Q, K28D, T30S
notes: as for B5
As to B12, the Kd in [8] is 900 pM. In experiment [10], this molecule showed a koff of 0.00044 s⁻¹. In addition, in experiment [7], the kon came out at 480000 M⁻¹ s⁻¹.

These data come from patent US20030224397A1 (Genentech, published 2003).
